Patent US20170306033A1 (Amgen, published 2017)

T1: human PAC1 receptor (human, UniProt P41586 21-468)
T1 sequence: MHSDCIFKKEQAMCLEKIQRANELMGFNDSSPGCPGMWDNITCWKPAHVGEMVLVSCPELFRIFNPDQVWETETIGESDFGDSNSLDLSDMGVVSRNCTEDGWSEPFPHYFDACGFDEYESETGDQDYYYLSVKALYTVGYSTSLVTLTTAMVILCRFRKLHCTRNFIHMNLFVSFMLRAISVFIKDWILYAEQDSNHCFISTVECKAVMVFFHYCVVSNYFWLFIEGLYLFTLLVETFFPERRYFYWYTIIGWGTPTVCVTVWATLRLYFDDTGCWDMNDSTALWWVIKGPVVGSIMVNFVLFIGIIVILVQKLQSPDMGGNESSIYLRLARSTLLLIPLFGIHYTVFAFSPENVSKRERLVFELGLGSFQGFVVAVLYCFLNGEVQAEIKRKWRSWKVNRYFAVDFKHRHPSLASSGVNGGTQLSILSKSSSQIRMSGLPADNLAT


Assays:
human CGRP receptor = human CGRP receptor (human, UniProt Q16602 23-461; O60894 27-148); assay: cell-based or functional assay
human PAC1 receptor = biological target: T1, human PAC1 receptor; assay: cell-based or functional assay

human CGRP receptor, sequence (Q16602 23-461 limits assumed, chain 1 of 2): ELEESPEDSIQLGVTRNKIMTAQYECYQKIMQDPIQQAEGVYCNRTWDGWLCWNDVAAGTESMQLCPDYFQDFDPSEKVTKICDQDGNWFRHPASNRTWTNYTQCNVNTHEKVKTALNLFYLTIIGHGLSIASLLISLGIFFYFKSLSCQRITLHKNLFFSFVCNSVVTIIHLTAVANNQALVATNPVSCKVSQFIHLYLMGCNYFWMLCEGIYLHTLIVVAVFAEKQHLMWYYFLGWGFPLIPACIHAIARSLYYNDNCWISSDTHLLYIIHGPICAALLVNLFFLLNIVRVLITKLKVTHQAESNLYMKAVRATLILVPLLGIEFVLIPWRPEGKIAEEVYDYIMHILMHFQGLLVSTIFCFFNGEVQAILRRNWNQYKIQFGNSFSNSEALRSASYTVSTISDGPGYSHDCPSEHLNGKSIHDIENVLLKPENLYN
human CGRP receptor, sequence (O60894 27-148 limits assumed, chain 2 of 2): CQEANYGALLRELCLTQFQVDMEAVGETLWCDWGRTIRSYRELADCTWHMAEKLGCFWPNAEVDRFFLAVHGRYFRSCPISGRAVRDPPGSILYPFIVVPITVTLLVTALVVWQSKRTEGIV

% inhibition of human CGRPR (human CGRP receptor) [%] | % inhibition of human PAC1 (human PAC1 receptor) [%] | Binder
85 | 99 | iPS:327283 (bispecific antibody, human IgG1, kappa, lambda, N297G) light 1: EIVLTQSPATLSLSPGERATLSCRASQSVGRSLHWYQQKPGQAPRLLIKYASQSLSGIPARFSGSGSGTDFTLTISSLEPEDFAVYYCHQSSRLPFTFGPGTKVDIKRTVAAPSVFIFPPSDEQLKSGTASVVCLLNNFYPREAKVQWKVDNALQSGNSQESVTEQDSKDSTYSLESTLTLSKADYEKHKVYACEVTHQGLSSPVTKSFNRGEC heavy 1: not shown light 2: QSVLTQPPSVSAAPGQKVTISCSGSSSNIGNNYVSWYQQLPGTAPKLLIYDNNKRPSGIPDRFSGSKSGTSTTLGITGLQTGDEADYYCGTWDSRLSAVVFGGGTKLTVLGQPKANPTVTLFPPSSEELQANKATLVCLISDFYPGAVTVAWKADGSPVKAGVETTKPSKQSNNKYAAKSYLSLTPEQWKSHRSYSCQVTHEGSTVEKTVAPTECS heavy 2: QVQLVESGGGVVQPGRSLRLSCAASGFTFSSFGMHWVRQAPGKGLEWVAVISFDGSIKYSVDSVKGRFTISRDNSKNTLFLQMNSLRAEDTAVYYCARDRLNYYDSSGYYHYKYYGMAVWGQGTTVTVSSASTKGPSVFPLAPSSKSTSGGTAALGCLVKDYFPEPVTVSWNSGALTSGVHTFPAVLQSSGLYSLESVVTVPSSSLGTQTYICNVNHKPSNTKVDKKVEPKSCDKTHTCPPCPAPELLGGPSVFLFPPKPKDTLMISRTPEVTCVVVDVSHEDPEVKFNWYVDGVEVHNAKTKPCEEQYGSTYRCVSVLTVLHQDWLNGKEYKCKVSNKALPAPIEKTISKAKGQPREPQVYTLPPSRKEMTKNQVSLTCLVKGFYPSDIAVEWESNGQPENNYKTTPPVLKSDGSFFLYSKLTVDKSRWQQGNVFSCSVMHEALHNHYTQKSLSLSPGK
77 | 25 | iPS:327284 (bispecific antibody, human IgG1, kappa, lambda, N297G) light 1: DIQMTQSPSSLSASVGDRITITCRASQSISRYLNWYQQKPGKAPKLLIYAASSLQSGIPSRFSGSGSGTDFTLTINSLQPEDFATYFCQQSYSPPFTFGEGTKVDIKRTVAAPSVFIFPPSDEQLKSGTASVVCLLNNFYPREAKVQWKVDNALQSGNSQESVTEQDSKDSTYSLESTLTLSKADYEKHKVYACEVTHQGLSSPVTKSFNRGEC heavy 1: not shown light 2: QSVLTQPPSVSAAPGQKVTISCSGSSSNIGNNYVSWYQQLPGTAPKLLIYDNNKRPSGIPDRFSGSKSGTSTTLGITGLQTGDEADYYCGTWDSRLSAVVFGKGTKLTVLGQPKANPTVTLFPPSSEELQANKATLVCLISDFYPGAVTVAWKADGSPVKAGVETTKPSKQSNNKYAAKSYLSLTPEQWKSHRSYSCQVTHEGSTVEKTVAPTECS heavy 2: QVQLVESGGGVVQPGRSLRLSCAASGFTFSSFGMHWVRQAPGKELEWVAVISFDGSIKYSVDSVKGRFTISRDNSKNTLFLQMNSLRAEDTAVYYCARDRLNYYDSSGYYHYKYYGMAVWGQGTTVTVSSASTKGPSVFPLAPSSKSTSGGTAALGCLVKDYFPEPVTVSWNSGALTSGVHTFPAVLQSSGLYSLESVVTVPSSSLGTQTYICNVNHKPSNTKVDKKVEPKSCDKTHTCPPCPAPELLGGPSVFLFPPKPKDTLMISRTPEVTCVVVDVSHEDPEVKFNWYVDGVEVHNAKTKPCEEQYGSTYRCVSVLTVLHQDWLNGKEYKCKVSNKALPAPIEKTISKAKGQPREPQVYTLPPSRKEMTKNQVSLTCLVKGFYPSDIAVEWESNGQPENNYKTTPPVLKSDGSFFLYSKLTVDKSRWQQGNVFSCSVMHEALHNHYTQKSLSLSPGK
75 | 63 | iPS:328000 (bispecific antibody, human IgG2, kappa, lambda) light 1: not shown heavy 1: QVQLQESGPGLVKPSQTLSLTCTVSGGSISSGGYYWSWIRQHPGKGLEWIGYIYYSGNTYYNPSLKSRVTISGDTSKNQFSLKLRSVTAADTAVYYCTRGGAARGMDVWGQGTTVTVSSASTKGPSVFPLAPCSRSTSESTAALGCLVKDYFPEPVTVSWNSGALTSGVHTFPAVLQSSGLYSLKSVVTVPSSNFGTQTYTCNVDHKPSNTKVDKTVERKCCVECPPCPAPPVAGPSVFLFPPKPKDTLMISRTPEVTCVVVDVSHEDPEVQFNWYVDGVEVHNAKTKPREEQFNSTFRVVSVLTVVHQDWLNGKEYKCKVSNKGLPAPIEKTISKTKGQPREPQVYTLPPSREEMTKNQVSLTCLVDGFYPSDIAVEWESNGQPENNYDTTPPMLDSDGSFFLYSDLTVDKSRWQQGNVFSCSVMHEALHNHYTQKSLSLSPGK light 2: QSVLTQPPSVSAAPGQKVTISCSGSSSNIGNNYVSWYQQLPGTAPKLLIYDNNKRPSGIPDRFSGSKSGTSTTLGITGLQTGDEADYYCGTWDSRLSAVVFGGGTKLTVLGQPKANPTVTLFPPSSEELQANKATLVCLISDFYPGAVTVAWKADGSPVKAGVETTKPSKQSNNKYAAKSYLSLTPEQWKSHRSYSCQVTHEGSTVEKTVAPTECS heavy 2: QVQLVESGGGVVQPGRSLRLSCAASGFTFSSFGMHWVRQAPGKGLEWVAVISFDGSIKYSVDSVKGRFTISRDNSKNTLFLQMNSLRAEDTAVYYCARDRLNYYDSSGYYHYKYYGMAVWGQGTTVTVSSASTKGPSVFPLAPCSRSTSESTAALGCLVKDYFPEPVTVSWNSGALTSGVHTFPAVLQSSGLYSLESVVTVPSSNFGTQTYTCNVDHKPSNTKVDKTVERKCCVECPPCPAPPVAGPSVFLFPPKPKDTLMISRTPEVTCVVVDVSHEDPEVQFNWYVDGVEVHNAKTKPREEQFNSTFRVVSVLTVVHQDWLNGKEYKCKVSNKGLPAPIEKTISKTKGQPREPQVYTLPPSRKKMTKNQVSLTCLVKGFYPSDIAVEWESNGQPENNYKTTPPMLKSDGSFFLYSKLTVDKSRWQQGNVFSCSVMHEALHNHYTQKSLSLSPGK
73 | 95 | iPS:327279 (bispecific antibody, human IgG1, kappa, lambda, N297G) light 1: EIVLTQSPATLSLSPGERATLSCRASQSVGRSLHWYQQKPGQAPRLLIKYASQSLSGIPARFSGSGSGTDFTLTISSLEPEDFAVYYCHQSSRLPFTFGPGTKVDIKRTVAAPSVFIFPPSDEQLKSGTASVVCLLNNFYPREAKVQWKVDNALQSGNSQESVTEQDSKDSTYSLESTLTLSKADYEKHKVYACEVTHQGLSSPVTKSFNRGEC heavy 1: not shown light 2: not shown heavy 2: not shown
66 | 48 | iPS:326417 (bispecific antibody, human IgG1, kappa, N297G) light 1: not shown heavy 1: not shown light 2: EIVLTQSPGTLSLSPGERATLSCRASQSVSSGYLTWYQQKPGQAPRLLIYGASSRATGIPDRFSGSGSGTDFTLTISRLEPEDFAVYYCQQYGNSLSRFGQGTKLEIKRTVAAPSVFIFPPSDEQLKSGTASVVCLLNNFYPREAKVQWKVDNALQSGNSQESVTEQDSKDSTYSLKSTLTLSKADYEKHKVYACEVTHQGLSSPVTKSFNRGEC heavy 2: not shown
84 | 61 | iPS:326628 (bispecific antibody, human IgG2, kappa, lambda) light 1: DIQLTQSPSFLSASVGDRVTITCRASQSIGRSLHWYQQKPGKAPKLLIKYASQSLSGVPSRFSGSGSGTEFTLTISSLQPEDFATYYCHQSSRLPFTFGPGTKVDIKRTVAAPSVFIFPPSDEQLKSGTASVVCLLNNFYPREAKVQWKVDNALQSGNSQESVTEQDSKDSTYSLESTLTLSKADYEKHKVYACEVTHQGLSSPVTKSFNRGEC heavy 1: QVQLVESGAEVVKPGASVKVSCKASGFTFSRFAMHWVRQAPGQGLEWMGVISYDGGNKYYAESVKGRVTMTRDTSTSTLYMELSSLRSEDTAVYYCARGYDVLTGYPDYWGQGTLVTVSSASTKGPSVFPLAPCSRSTSESTAALGCLVKDYFPEPVTVSWNSGALTSGVHTFPAVLQSSGLYSLKSVVTVPSSNFGTQTYTCNVDHKPSNTKVDKTVERKCCVECPPCPAPPVAGPSVFLFPPKPKDTLMISRTPEVTCVVVDVSHEDPEVQFNWYVDGVEVHNAKTKPREEQFNSTFRVVSVLTVVHQDWLNGKEYKCKVSNKGLPAPIEKTISKTKGQPREPQVYTLPPSREEMTKNQVSLTCLVDGFYPSDIAVEWESNGQPENNYDTTPPMLDSDGSFFLYSDLTVDKSRWQQGNVFSCSVMHEALHNHYTQKSLSLSPGK light 2: not shown heavy 2: not shown
87 | 58 | iPS:327282 (bispecific antibody, human IgG1, kappa, lambda, N297G) light 1: DIQLTQSPSFLSASVGDRVTITCRASQSIGRSLHWYQQKPGKAPKLLIKYASQSLSGVPSRFSGSGSGTEFTLTISSLQPEDFATYYCHQSSRLPFTFGPGTKVDIKRTVAAPSVFIFPPSDEQLKSGTASVVCLLNNFYPREAKVQWKVDNALQSGNSQESVTEQDSKDSTYSLESTLTLSKADYEKHKVYACEVTHQGLSSPVTKSFNRGEC heavy 1: not shown light 2: QSVLTQPPSVSAAPGQKVTISCSGSSSNIGNNYVSWYQQLPGTAPKLLIYDNNKRPSGIPDRFSGSKSGTSTTLGITGLQTGDEADYYCGTWDSRLSAVVFGGGTKLTVLGQPKANPTVTLFPPSSEELQANKATLVCLISDFYPGAVTVAWKADGSPVKAGVETTKPSKQSNNKYAAKSYLSLTPEQWKSHRSYSCQVTHEGSTVEKTVAPTECS heavy 2: QVQLVESGGGVVQPGRSLRLSCAASGFTFSSFGMHWVRQAPGKGLEWVAVISFDGSIKYSVDSVKGRFTISRDNSKNTLFLQMNSLRAEDTAVYYCARDRLNYYDSSGYYHYKYYGMAVWGQGTTVTVSSASTKGPSVFPLAPSSKSTSGGTAALGCLVKDYFPEPVTVSWNSGALTSGVHTFPAVLQSSGLYSLESVVTVPSSSLGTQTYICNVNHKPSNTKVDKKVEPKSCDKTHTCPPCPAPELLGGPSVFLFPPKPKDTLMISRTPEVTCVVVDVSHEDPEVKFNWYVDGVEVHNAKTKPCEEQYGSTYRCVSVLTVLHQDWLNGKEYKCKVSNKALPAPIEKTISKAKGQPREPQVYTLPPSRKEMTKNQVSLTCLVKGFYPSDIAVEWESNGQPENNYKTTPPVLKSDGSFFLYSKLTVDKSRWQQGNVFSCSVMHEALHNHYTQKSLSLSPGK
85 | 47 | iPS:327278 (bispecific antibody, human IgG1, kappa, lambda, N297G) light 1: DIQLTQSPSFLSASVGDRVTITCRASQSIGRSLHWYQQKPGKAPKLLIKYASQSLSGVPSRFSGSGSGTEFTLTISSLQPEDFATYYCHQSSRLPFTFGPGTKVDIKRTVAAPSVFIFPPSDEQLKSGTASVVCLLNNFYPREAKVQWKVDNALQSGNSQESVTEQDSKDSTYSLESTLTLSKADYEKHKVYACEVTHQGLSSPVTKSFNRGEC heavy 1: not shown light 2: not shown heavy 2: not shown
